According to paper PMC7112951, “Structures of the ATP-fueled ClpXP proteolytic machine bound to protein substrate” (eLife, 2020):

Target: the molecule itself
Assay: cryo-EM structure; ClpX^∆N pseudohexamer 4 µM and ClpP14 1.8 µM (2 µM in the results) in EM buffer (20 mM HEPES, pH 7.5, 100 mM KCl, 25 mM MgCl2, 5 mM ATPγS), 5 min at 25°C before vitrification; doubly capped complexes analysed

B1: one ClpX^∆N E185Q subunit (unit) of the single-chain pseudohexamer (domain or fragment)
chain: not shown
notes: ClpX, E. coli K12, residues 62-424 (ClpX^∆N); In the sample the six units are joined on one chain by six-residue linkers; written alone for the contacts between neighbouring units; also called ClpX^∆N subunit; subunits A-F; source: E. coli strain ER2566, purified, as part of the single-chain pseudohexamer m1
stoichiometry N: 6
